Numbering of substitutions follows the chain as printed.
What was measured:
Conditions in all cases: protein: recombinant; tags: N-terminal His6 removed by PreScission protease; label: 5' biotin; single strand
rnGLD-2 NTase region WT = target: T1, rnGLD-2 NTase region WT (Rattus norvegicus, UniProt Q5U315 131-484); experiment: EMSA; 4 uM protein, 50 nM RNA; described as weak interaction; no Mg2+ listed in binding buffer; EMSA: 20 mM Tris-HCl pH 8.0, 100 mM NaCl, 37 C 20 min; 4 uM protein, 50 nM 5' biotinylated RNA; 6% native gel, TAE pH 7.2, 4 C
T1 sequence: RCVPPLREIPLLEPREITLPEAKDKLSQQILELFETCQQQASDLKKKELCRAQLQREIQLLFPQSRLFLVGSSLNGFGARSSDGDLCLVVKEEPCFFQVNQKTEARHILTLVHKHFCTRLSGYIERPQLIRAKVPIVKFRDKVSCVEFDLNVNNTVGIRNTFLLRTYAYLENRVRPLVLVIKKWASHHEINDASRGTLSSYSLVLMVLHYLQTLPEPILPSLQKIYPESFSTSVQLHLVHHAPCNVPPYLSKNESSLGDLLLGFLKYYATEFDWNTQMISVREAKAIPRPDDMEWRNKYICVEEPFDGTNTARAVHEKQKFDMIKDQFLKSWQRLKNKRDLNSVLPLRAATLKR

rnGLD-2 R236A = target: T2, rnGLD-2 R236A (Rattus norvegicus, UniProt Q5U315 131-484, R236A); experiment: EMSA; 4 uM protein, 50 nM RNA; efficient/tight binding stated; EMSA: 20 mM Tris-HCl pH 8.0, 100 mM NaCl, 37 C 20 min; 4 uM protein, 50 nM 5' biotinylated RNA; 6% native gel, TAE pH 7.2, 4 C
T2 sequence: T1 sequence with R106A

rnGLD-2 R325A = target: T3, rnGLD-2 R325A (Rattus norvegicus, UniProt Q5U315 131-484, R325A); experiment: EMSA; 4 uM protein, 50 nM RNA; EMSA: 20 mM Tris-HCl pH 8.0, 100 mM NaCl, 37 C 20 min; 4 uM protein, 50 nM 5' biotinylated RNA; 6% native gel, TAE pH 7.2, 4 C
T3 sequence: T1 sequence with R195A

rnGLD-2 R443A = target: T4, rnGLD-2 R443A (Rattus norvegicus, UniProt Q5U315 131-484, R443A); experiment: as above
T4 sequence: T1 sequence with R313A

B1: A15 (ssRNA)
RNA: AAAAAAAAAAAAAAA
B1: binds (rnGLD-2 NTase region WT); binds (rnGLD-2 R236A); no binding (rnGLD-2 R325A). B1: no binding (rnGLD-2 R443A).
